Series [1] has as its target USP25CD ΔIL (USP25 catalytic domain construct with the IL-loop, Cys465 to Pro537, replaced by Gly-Ser-Gly) (human). Briefly: SEC; analytical gel filtration of all truncation constructs run in parallel under identical conditions, Superdex 16 column, 100 mM NaCl, 20 mM Tris-HCl pH 8.0, 1 mM β-mercaptoethanol; oligomer from elution time against expected molecular weight. Background: Size exclusion chromatography separates by hydrodynamic size, large species first.

For the next series, the target named is USP25 Y454E (human) (UniProt Q9UHP3). The experiment in a line: SEC; oligomer state of USP25 point mutants (Supplementary Figures 6 and 11, not shown); by the methods all USP25 constructs were loaded on a Superdex 16 column in 100 mM NaCl, 20 mM Tris-HCl pH 8.0, 1 mM β-mercaptoethanol and run on native PAGE.
For the next series, the target named is USP25 Y454F (human) (UniProt Q9UHP3). Described as above.
Series [2] has as its target USP25CD (human USP25 with the NTD and the CTD deleted) (human). The experiment in a line: SEC; analytical gel filtration of all truncation constructs run in parallel under identical conditions, Superdex 16 column, 100 mM NaCl, 20 mM Tris-HCl pH 8.0, 1 mM β-mercaptoethanol; oligomer from elution time against expected molecular weight.
Series [3] concerns the molecule itself. Briefly: SEC; purification of USP25NCD: preparative Superdex 200 gel filtration, anion exchange of the two peak fractions, analytical gel filtration (Superdex 16) of the dimer and tetramer fractions; 100 mM NaCl, 20 mM Tris-HCl pH 8.0, 1 mM β-mercaptoethanol.
Series [4] deals with the molecule itself. The experiment in a line: SEC; analytical gel filtration of all truncation constructs run in parallel under identical conditions, Superdex 16 column, 100 mM NaCl, 20 mM Tris-HCl pH 8.0, 1 mM β-mercaptoethanol; oligomer from elution time against expected molecular weight.
Series [5] concerns the target T1, USP25FL (full-length human USP25) (human), Q9UHP3.
T1 chain: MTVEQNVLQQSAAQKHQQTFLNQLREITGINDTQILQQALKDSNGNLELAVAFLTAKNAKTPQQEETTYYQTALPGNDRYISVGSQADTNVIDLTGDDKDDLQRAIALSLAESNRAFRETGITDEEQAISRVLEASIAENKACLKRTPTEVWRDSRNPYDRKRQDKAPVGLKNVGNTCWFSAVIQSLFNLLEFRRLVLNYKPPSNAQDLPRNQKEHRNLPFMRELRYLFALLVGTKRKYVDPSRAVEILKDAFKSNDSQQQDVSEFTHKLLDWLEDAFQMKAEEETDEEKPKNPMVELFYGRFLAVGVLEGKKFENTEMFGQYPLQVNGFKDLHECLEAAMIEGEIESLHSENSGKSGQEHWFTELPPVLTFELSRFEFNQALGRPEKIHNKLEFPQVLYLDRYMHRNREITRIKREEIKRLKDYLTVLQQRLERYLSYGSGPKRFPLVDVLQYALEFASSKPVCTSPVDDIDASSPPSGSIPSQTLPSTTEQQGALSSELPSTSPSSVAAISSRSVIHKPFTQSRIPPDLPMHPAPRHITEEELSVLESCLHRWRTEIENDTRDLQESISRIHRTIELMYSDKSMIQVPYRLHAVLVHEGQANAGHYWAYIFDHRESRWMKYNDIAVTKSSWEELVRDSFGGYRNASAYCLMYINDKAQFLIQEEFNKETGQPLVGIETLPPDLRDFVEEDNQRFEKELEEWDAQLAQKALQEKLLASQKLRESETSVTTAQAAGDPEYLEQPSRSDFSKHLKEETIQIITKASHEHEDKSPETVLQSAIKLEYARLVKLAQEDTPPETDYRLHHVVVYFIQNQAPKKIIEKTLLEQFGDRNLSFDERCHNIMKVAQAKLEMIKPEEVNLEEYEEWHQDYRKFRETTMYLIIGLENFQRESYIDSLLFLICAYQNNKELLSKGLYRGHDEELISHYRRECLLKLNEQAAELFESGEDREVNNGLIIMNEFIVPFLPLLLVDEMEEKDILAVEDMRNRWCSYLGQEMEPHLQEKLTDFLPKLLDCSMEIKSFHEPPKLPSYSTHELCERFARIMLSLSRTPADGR
Described as above. Particulars: remark: other sources report otherwise.

Where “and” joins values, the source holds several entries; their conditions need not be identical. Equal values may be shown once.

In general, stoichiometry N refers to a count of units in the complex or per binding partner. In the case of “USP25CD ΔIL (USP25 catalytic domain construct with the IL-loop, Cys465 to Pro537, replaced by Gly-Ser-Gly) (domain or fragment)”, in series [1], the stoichiometry N turned out to be 2.

With “USP25 Y454E (from UniProt Q9UHP3 1-1055) (enzyme)”, in the series with USP25 Y454E (human), the stoichiometry N worked out at 2.

The molecule “USP25 Y454F (from UniProt Q9UHP3 1-1055) (enzyme)” came in with a stoichiometry N in the series with USP25 Y454F (human) of 4.

In the case of “USP25CD (human USP25 with the NTD and the CTD deleted) (domain or fragment)”, in series [2], the stoichiometry N was 4.

B1: USP25NCD (human USP25, N-terminal domain and USP-like catalytic domain, Gln18 to Glu714) (enzyme, UniProt Q9UHP3 18-714, looked up)
chain: QTFLNQLREITGINDTQILQQALKDSNGNLELAVAFLTAKNAKTPQQEETTYYQTALPGNDRYISVGSQADTNVIDLTGDDKDDLQRAIALSLAESNRAFRETGITDEEQAISRVLEASIAENKACLKRTPTEVWRDSRNPYDRKRQDKAPVGLKNVGNTCWFSAVIQSLFNLLEFRRLVLNYKPPSNAQDLPRNQKEHRNLPFMRELRYLFALLVGTKRKYVDPSRAVEILKDAFKSNDSQQQDVSEFTHKLLDWLEDAFQMKAEEETDEEKPKNPMVELFYGRFLAVGVLEGKKFENTEMFGQYPLQVNGFKDLHECLEAAMIEGEIESLHSENSGKSGQEHWFTELPPVLTFELSRFEFNQALGRPEKIHNKLEFPQVLYLDRYMHRNREITRIKREEIKRLKDYLTVLQQRLERYLSYGSGPKRFPLVDVLQYALEFASSKPVCTSPVDDIDASSPPSGSIPSQTLPSTTEQQGALSSELPSTSPSSVAAISSRSVIHKPFTQSRIPPDLPMHPAPRHITEEELSVLESCLHRWRTEIENDTRDLQESISRIHRTIELMYSDKSMIQVPYRLHAVLVHEGQANAGHYWAYIFDHRESRWMKYNDIAVTKSSWEELVRDSFGGYRNASAYCLMYINDKAQFLIQEEFNKETGQPLVGIETLPPDLRDFVEEDNQRFEKELEEWDAQLAQKALQE
notes: USP25, human, residues 18-714 of the 1055-residue protein (Met1 to Arg1055); A His tag ahead of Smt3 is surmised from the Ni2+ purification; also called USP25NCD tetramer; USP25NCD dimer; not shown: Smt3, N-terminal, cleaved
As to B1, the “stoichiometry N” value in series [3] was 2 and 4.

B2: USP25NCD ΔIL (USP25 18-714 with the IL-loop, Cys465 to Pro537, replaced by Gly-Ser-Gly) (enzyme, human)
chain: QTFLNQLREITGINDTQILQQALKDSNGNLELAVAFLTAKNAKTPQQEETTYYQTALPGNDRYISVGSQADTNVIDLTGDDKDDLQRAIALSLAESNRAFRETGITDEEQAISRVLEASIAENKACLKRTPTEVWRDSRNPYDRKRQDKAPVGLKNVGNTCWFSAVIQSLFNLLEFRRLVLNYKPPSNAQDLPRNQKEHRNLPFMRELRYLFALLVGTKRKYVDPSRAVEILKDAFKSNDSQQQDVSEFTHKLLDWLEDAFQMKAEEETDEEKPKNPMVELFYGRFLAVGVLEGKKFENTEMFGQYPLQVNGFKDLHECLEAAMIEGEIESLHSENSGKSGQEHWFTELPPVLTFELSRFEFNQALGRPEKIHNKLEFPQVLYLDRYMHRNREITRIKREEIKRLKDYLTVLQQRLERYLSYGSGPKRFPLVDVLQYALEFASSKPVGSGRHITEEELSVLESCLHRWRTEIENDTRDLQESISRIHRTIELMYSDKSMIQVPYRLHAVLVHEGQANAGHYWAYIFDHRESRWMKYNDIAVTKSSWEELVRDSFGGYRNASAYCLMYINDKAQFLIQEEFNKETGQPLVGIETLPPDLRDFVEEDNQRFEKELEEWDAQLAQKALQE
notes: USP25, human, from Gln18 to the residue before the deletion (deletion from Cys465 to Pro537); three-amino-acid linker Gly-Ser-Gly in place of the deleted stretch; USP25, human, from the residue after the deletion to Glu714; also called ΔIL USP25NCD; USP25NCD ∆IL; not shown: Smt3, N-terminal, cleaved
Turning to B2, the “stoichiometry N” value in series [4] is 2.

B3: USP25FL (full-length human USP25), Q9UHP3 1-1055 (enzyme)
chain: MTVEQNVLQQSAAQKHQQTFLNQLREITGINDTQILQQALKDSNGNLELAVAFLTAKNAKTPQQEETTYYQTALPGNDRYISVGSQADTNVIDLTGDDKDDLQRAIALSLAESNRAFRETGITDEEQAISRVLEASIAENKACLKRTPTEVWRDSRNPYDRKRQDKAPVGLKNVGNTCWFSAVIQSLFNLLEFRRLVLNYKPPSNAQDLPRNQKEHRNLPFMRELRYLFALLVGTKRKYVDPSRAVEILKDAFKSNDSQQQDVSEFTHKLLDWLEDAFQMKAEEETDEEKPKNPMVELFYGRFLAVGVLEGKKFENTEMFGQYPLQVNGFKDLHECLEAAMIEGEIESLHSENSGKSGQEHWFTELPPVLTFELSRFEFNQALGRPEKIHNKLEFPQVLYLDRYMHRNREITRIKREEIKRLKDYLTVLQQRLERYLSYGSGPKRFPLVDVLQYALEFASSKPVCTSPVDDIDASSPPSGSIPSQTLPSTTEQQGALSSELPSTSPSSVAAISSRSVIHKPFTQSRIPPDLPMHPAPRHITEEELSVLESCLHRWRTEIENDTRDLQESISRIHRTIELMYSDKSMIQVPYRLHAVLVHEGQANAGHYWAYIFDHRESRWMKYNDIAVTKSSWEELVRDSFGGYRNASAYCLMYINDKAQFLIQEEFNKETGQPLVGIETLPPDLRDFVEEDNQRFEKELEEWDAQLAQKALQEKLLASQKLRESETSVTTAQAAGDPEYLEQPSRSDFSKHLKEETIQIITKASHEHEDKSPETVLQSAIKLEYARLVKLAQEDTPPETDYRLHHVVVYFIQNQAPKKIIEKTLLEQFGDRNLSFDERCHNIMKVAQAKLEMIKPEEVNLEEYEEWHQDYRKFRETTMYLIIGLENFQRESYIDSLLFLICAYQNNKELLSKGLYRGHDEELISHYRRECLLKLNEQAAELFESGEDREVNNGLIIMNEFIVPFLPLLLVDEMEEKDILAVEDMRNRWCSYLGQEMEPHLQEKLTDFLPKLLDCSMEIKSFHEPPKLPSYSTHELCERFARIMLSLSRTPADGR
Molecule B3 registered a stoichiometry N in series [5] of 4.

B4: USP25FL ΔIL (full-length USP25 with the IL-loop, Cys465 to Pro537, replaced by Gly-Ser-Gly) (enzyme, human)
chain: MTVEQNVLQQSAAQKHQQTFLNQLREITGINDTQILQQALKDSNGNLELAVAFLTAKNAKTPQQEETTYYQTALPGNDRYISVGSQADTNVIDLTGDDKDDLQRAIALSLAESNRAFRETGITDEEQAISRVLEASIAENKACLKRTPTEVWRDSRNPYDRKRQDKAPVGLKNVGNTCWFSAVIQSLFNLLEFRRLVLNYKPPSNAQDLPRNQKEHRNLPFMRELRYLFALLVGTKRKYVDPSRAVEILKDAFKSNDSQQQDVSEFTHKLLDWLEDAFQMKAEEETDEEKPKNPMVELFYGRFLAVGVLEGKKFENTEMFGQYPLQVNGFKDLHECLEAAMIEGEIESLHSENSGKSGQEHWFTELPPVLTFELSRFEFNQALGRPEKIHNKLEFPQVLYLDRYMHRNREITRIKREEIKRLKDYLTVLQQRLERYLSYGSGPKRFPLVDVLQYALEFASSKPVGSGRHITEEELSVLESCLHRWRTEIENDTRDLQESISRIHRTIELMYSDKSMIQVPYRLHAVLVHEGQANAGHYWAYIFDHRESRWMKYNDIAVTKSSWEELVRDSFGGYRNASAYCLMYINDKAQFLIQEEFNKETGQPLVGIETLPPDLRDFVEEDNQRFEKELEEWDAQLAQKALQEKLLASQKLRESETSVTTAQAAGDPEYLEQPSRSDFSKHLKEETIQIITKASHEHEDKSPETVLQSAIKLEYARLVKLAQEDTPPETDYRLHHVVVYFIQNQAPKKIIEKTLLEQFGDRNLSFDERCHNIMKVAQAKLEMIKPEEVNLEEYEEWHQDYRKFRETTMYLIIGLENFQRESYIDSLLFLICAYQNNKELLSKGLYRGHDEELISHYRRECLLKLNEQAAELFESGEDREVNNGLIIMNEFIVPFLPLLLVDEMEEKDILAVEDMRNRWCSYLGQEMEPHLQEKLTDFLPKLLDCSMEIKSFHEPPKLPSYSTHELCERFARIMLSLSRTPADGR
notes: USP25, human, from Met1 to the residue before the deletion (deletion from Cys465 to Pro537); three-amino-acid linker Gly-Ser-Gly in place of the deleted stretch; USP25, human, from the residue after the deletion to Arg1055; also called ΔIL USP25FL; not shown: Smt3, N-terminal, cleaved
On to B4, for which the “stoichiometry N” value in series [4] stood at 2.

(Values after article PMC6255862, “A quaternary tetramer assembly inhibits the deubiquitinating activity of USP25” (Nature Communications, 2018).)
